Target: T1, TSEN2 Y369A/H377A/K416A (endonuclease triple mutant in pCDNA3.1-TSEN2-Flag) (human, UniProt Q8NCE0 1-465, Y369A | H377A | K416A)
T1 sequence: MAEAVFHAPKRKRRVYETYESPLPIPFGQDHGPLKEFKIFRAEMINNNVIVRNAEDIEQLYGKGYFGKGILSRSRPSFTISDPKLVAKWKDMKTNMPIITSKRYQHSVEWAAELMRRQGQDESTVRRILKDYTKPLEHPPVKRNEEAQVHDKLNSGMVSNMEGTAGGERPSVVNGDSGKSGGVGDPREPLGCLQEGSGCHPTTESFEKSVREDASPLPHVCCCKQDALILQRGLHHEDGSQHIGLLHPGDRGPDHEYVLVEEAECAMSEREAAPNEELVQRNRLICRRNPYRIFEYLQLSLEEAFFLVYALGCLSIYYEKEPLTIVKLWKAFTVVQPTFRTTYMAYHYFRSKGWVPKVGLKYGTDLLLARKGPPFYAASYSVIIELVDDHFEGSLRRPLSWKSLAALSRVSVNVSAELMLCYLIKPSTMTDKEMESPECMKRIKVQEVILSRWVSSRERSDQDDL
Experiment: cryo-EM structure

B1: TSEN15-Flag (pCDNA3.1-TSEN15-Flag) (natural protein, human)
chain: MEERGDSEPTPGCSGLGPGGVRGFGDGGGAPSWAPEDAWMGTHPKYLEMMELDIGDATQVYVAFLVYLDLMESKSWHEVNCVGLPELQLICLVGTEIEGEGLQTVVPTPITASLSHNRIREILKASRKLQGDPDLPMSFTLAIVESDSTIVYYKLTDGFMLPDPQNISLRR
binding result: binds

Reference: PMC10627149 (Nature structural & molecular biology, 2023)
